Source: publication PMC9410886

Molecular target: mouse mammary tumor virus (MMTV) integrase (IN) (mouse mammary tumor virus (MMTV))
Test: cryo-EM structure; octameric MMTV STC intasome: IN assembled on branched DNA, purified on Superdex 200 in 25 mM Tris-HCl pH 7.4, 200 mM NaCl, 2 mM DTT, 25 uM ZnCl2, 10 mM CaCl2; C2 symmetry, 3.5 Å global resolution

Substance: mouse mammary tumor virus (MMTV) integrase (IN) (enzyme)
- stoichiometry N: 8
